Data on 20 molecules can be found in US20240018502A1.

To fix the notation:
B1: MTSP-1 Q38H/I41A/D60bV/F60eI/Y60gW/F97T/ins97aE/T98G/F99L/C122S/G151N/Q175L/Q192D (enzyme)
chain: VVGGTDADEGEWPWQVSLHALGHGHACGASLISPNWLVSAAHCYIDVRGIRWSDPTQWTAFLGLHDQSQRSAPGVQERRLKRIISHPFFNDTEGLDYDIALLELEKPAEYSSMVRPISLPDASHVFPAGKAIWVTGWGHTQYGGTNALILQKGEIRVINQTTCENLLPQLITPRMMCVGFLSGGVDSCDGDSGGPLSSVEADGRIFQAGVVSWGDGCAQRNKPGVYTRLPLFRDWIKENTGV
B2: MTSP-1 Q38E/I41V/D60bF/F60eK/Y60gF/F97T/ins97aE/T98G/F99L/C122S/Q175L/Q192G (enzyme)
chain: VVGGTDADEGEWPWQVSLHALGEGHVCGASLISPNWLVSAAHCYIDFRGKRFSDPTQWTAFLGLHDQSQRSAPGVQERRLKRIISHPFFNDTEGLDYDIALLELEKPAEYSSMVRPISLPDASHVFPAGKAIWVTGWGHTQYGGTGALILQKGEIRVINQTTCENLLPQLITPRMMCVGFLSGGVDSCGGDSGGPLSSVEADGRIFQAGVVSWGDGCAQRNKPGVYTRLPLFRDWIKENTGV
B3: MTSP-1 Q38H/I41A/D60bT/F60eR/F97T/ins97aE/T98G/F99L/C122S/Q175L/Q192V (enzyme)
chain: VVGGTDADEGEWPWQVSLHALGHGHACGASLISPNWLVSAAHCYIDTRGRRYSDPTQWTAFLGLHDQSQRSAPGVQERRLKRIISHPFFNDTEGLDYDIALLELEKPAEYSSMVRPISLPDASHVFPAGKAIWVTGWGHTQYGGTGALILQKGEIRVINQTTCENLLPQLITPRMMCVGFLSGGVDSCVGDSGGPLSSVEADGRIFQAGVVSWGDGCAQRNKPGVYTRLPLFRDWIKENTGV
B4: MTSP-1 Q38R/I41V/D60bV/F60eV/Y60gF/ins97aE/F97T/T98G/F99L/C122S/Q175L/Q192G (enzyme)
chain: VVGGTDADEGEWPWQVSLHALGRGHVCGASLISPNWLVSAAHCYIDVRGVRFSDPTQWTAFLGLHDQSQRSAPGVQERRLKRIISHPFFNDTEGLDYDIALLELEKPAEYSSMVRPISLPDASHVFPAGKAIWVTGWGHTQYGGTGALILQKGEIRVINQTTCENLLPQLITPRMMCVGFLSGGVDSCGGDSGGPLSSVEADGRIFQAGVVSWGDGCAQRNKPGVYTRLPLFRDWIKENTGV
B5: MTSP-1 Q38H/H40P/I41A/F60eQ/Y60gW/F97T/ins97aE/T98G/F99L/C122S/Q175L/Q192D (enzyme)
chain: VVGGTDADEGEWPWQVSLHALGHGPACGASLISPNWLVSAAHCYIDDRGQRWSDPTQWTAFLGLHDQSQRSAPGVQERRLKRIISHPFFNDTEGLDYDIALLELEKPAEYSSMVRPISLPDASHVFPAGKAIWVTGWGHTQYGGTGALILQKGEIRVINQTTCENLLPQLITPRMMCVGFLSGGVDSCDGDSGGPLSSVEADGRIFQAGVVSWGDGCAQRNKPGVYTRLPLFRDWIKENTGV
B6: MTSP-1 Q38E/I41S/D60bV/F60eK/Y60gW/F97T/ins97aE/T98G/F99L/C122S/G151N/Q175L/Q192D (enzyme)
chain: VVGGTDADEGEWPWQVSLHALGEGHSCGASLISPNWLVSAAHCYIDVRGKRWSDPTQWTAFLGLHDQSQRSAPGVQERRLKRIISHPFFNDTEGLDYDIALLELEKPAEYSSMVRPISLPDASHVFPAGKAIWVTGWGHTQYGGTNALILQKGEIRVINQTTCENLLPQLITPRMMCVGFLSGGVDSCDGDSGGPLSSVEADGRIFQAGVVSWGDGCAQRNKPGVYTRLPLFRDWIKENTGV
B7: MTSP-1 Q38H2I/I41S/F97T/ins97aE/T98G/F99L/C122S/Q175L/Q192V (enzyme)
chain: VVGGTDADEGEWPWQVSLHALGKGHSCGASLISPNWLVSAAHCYIDDRGFRYSDPTQWTAFLGLHDQSQRSAPGVQERRLKRIISHPFFNDTEGLDYDIALLELEKPAEYSSMVRPISLPDASHVFPAGKAIWVTGWGHTQYGGTGALILQKGEIRVINQTTCENLLPQLITPRMMCVGFLSGGVDSCVGDSGGPLSSVEADGRIFQAGVVSWGDGCAQRNKPGVYTRLPLFRDWIKENTGV
B8: MTSP-1 Q38E/I41S/D60bT/F60eR/F97T/ins97aE/T98G/F99L/C122S/Q175L/Q192V (enzyme)
chain: VVGGTDADEGEWPWQVSLHALGEGHSCGASLISPNWLVSAAHCYIDTRGRRYSDPTQWTAFLGLHDQSQRSAPGVQERRLKRIISHPFFNDTEGLDYDIALLELEKPAEYSSMVRPISLPDASHVFPAGKAIWVTGWGHTQYGGTGALILQKGEIRVINQTTCENLLPQLITPRMMCVGFLSGGVDSCVGDSGGPLSSVEADGRIFQAGVVSWGDGCAQRNKPGVYTRLPLFRDWIKENTGV
B9: MTSP-1 Q38H/I41A/D60bV/F60eR/ins97aE/F97T/T98G/F99L/C122S/G151N/Q175L/Q192D (enzyme)
chain: VVGGTDADEGEWPWQVSLHALGHGHACGASLISPNWLVSAAHCYIDVRGRRYSDPTQWTAFLGLHDQSQRSAPGVQERRLKRIISHPFFNDTEGLDYDIALLELEKPAEYSSMVRPISLPDASHVFPAGKAIWVTGWGHTQYGGTNALILQKGEIRVINQTTCENLLPQLITPRMMCVGFLSGGVDSCDGDSGGPLSSVEADGRIFQAGVVSWGDGCAQRNKPGVYTRLPLFRDWIKENTGV
B10: MTSP-1 Q38H/I41A/D60bT/F60eH/Y60gW/F97T/ins97aE/T98G/F99L/C122S/G151N/Q175L/Q192D (enzyme)
chain: VVGGTDADEGEWPWQVSLHALGHGHACGASLISPNWLVSAAHCYIDTRGHRWSDPTQWTAFLGLHDQSQRSAPGVQERRLKRIISHPFFNDTEGLDYDIALLELEKPAEYSSMVRPISLPDASHVFPAGKAIWVTGWGHTQYGGTNALILQKGEIRVINQTTCENLLPQLITPRMMCVGFLSGGVDSCDGDSGGPLSSVEADGRIFQAGVVSWGDGCAQRNKPGVYTRLPLFRDWIKENTGV
B11: MTSP-1 Q38H/I41S/D60bT/F60eS/Y60gW/F97D/ins97aV/T98P/F99L/C122S/G151H/Q175A/Q192D (enzyme)
chain: VVGGTDADEGEWPWQVSLHALGHGHSCGASLISPNWLVSAAHCYIDTRGSRWSDPTQWTAFLGLHDQSQRSAPGVQERRLKRIISHPFFNDDVPLDYDIALLELEKPAEYSSMVRPISLPDASHVFPAGKAIWVTGWGHTQYGGTHALILQKGEIRVINQTTCENLLPQAITPRMMCVGFLSGGVDSCDGDSGGPLSSVEADGRIFQAGVVSWGDGCAQRNKPGVYTRLPLFRDWIKENTGV
B12: MTSP-1 Q38F/I41A/D60bT/F60eG/Y60gW/ins97aE/F97T/T98G/F99L/C122S/Q175L/Q192E (enzyme)
chain: VVGGTDADEGEWPWQVSLHALGFGHACGASLISPNWLVSAAHCYIDTRGGRWSDPTQWTAFLGLHDQSQRSAPGVQERRLKRIISHPFFNDTEGLDYDIALLELEKPAEYSSMVRPISLPDASHVFPAGKAIWVTGWGHTQYGGTGALILQKGEIRVINQTTCENLLPQLITPRMMCVGFLSGGVDSCEGDSGGPLSSVEADGRIFQAGVVSWGDGCAQRNKPGVYTRLPLFRDWIKENTGV
B13: MTSP-1 Q38H/I41A/F60eH/Y60gW/ins97aE/F97T/T98G/F99L/C122S/Q175L/Q192A (enzyme)
chain: VVGGTDADEGEWPWQVSLHALGHGHACGASLISPNWLVSAAHCYIDDRGHRWSDPTQWTAFLGLHDQSQRSAPGVQERRLKRIISHPFFNDTEGLDYDIALLELEKPAEYSSMVRPISLPDASHVFPAGKAIWVTGWGHTQYGGTGALILQKGEIRVINQTTCENLLPQLITPRMMCVGFLSGGVDSCAGDSGGPLSSVEADGRIFQAGVVSWGDGCAQRNKPGVYTRLPLFRDWIKENTGV
B14: MTSP-1 Q38H/I41A/D60bV/F60eA/Y60gW/F97T/ins97aE/T98G/F99L/C122S/Q175L/Q192V (enzyme)
chain: VVGGTDADEGEWPWQVSLHALGHGHACGASLISPNWLVSAAHCYIDVRGARWSDPTQWTAFLGLHDQSQRSAPGVQERRLKRIISHPFFNDTEGLDYDIALLELEKPAEYSSMVRPISLPDASHVFPAGKAIWVTGWGHTQYGGTGALILQKGEIRVINQTTCENLLPQLITPRMMCVGFLSGGVDSCVGDSGGPLSSVEADGRIFQAGVVSWGDGCAQRNKPGVYTRLPLFRDWIKENTGV
B15: MTSP-1 Q38H/I41S/D60bA/F60eV/ins97aE/F97T/T98G/F99L/C122S/Q175L/Q192E/Q209L (enzyme)
chain: VVGGTDADEGEWPWQVSLHALGHGHSCGASLISPNWLVSAAHCYIDARGVRYSDPTQWTAFLGLHDQSQRSAPGVQERRLKRIISHPFFNDTEGLDYDIALLELEKPAEYSSMVRPISLPDASHVFPAGKAIWVTGWGHTQYGGTGALILQKGEIRVINQTTCENLLPQLITPRMMCVGFLSGGVDSCEGDSGGPLSSVEADGRIFLAGVVSWGDGCAQRNKPGVYTRLPLFRDWIKENTGV
B16: MTSP-1 Q38H/I41A/D60bT/F60eK/Y60gW/F97T/ins97aE/T98G/F99L/C122S/Q175L/Q192A (enzyme)
chain: VVGGTDADEGEWPWQVSLHALGHGHACGASLISPNWLVSAAHCYIDTRGKRWSDPTQWTAFLGLHDQSQRSAPGVQERRLKRIISHPFFNDTEGLDYDIALLELEKPAEYSSMVRPISLPDASHVFPAGKAIWVTGWGHTQYGGTGALILQKGEIRVINQTTCENLLPQLITPRMMCVGFLSGGVDSCAGDSGGPLSSVEADGRIFQAGVVSWGDGCAQRNKPGVYTRLPLFRDWIKENTGV
B17: MTSP-1 I41T/D60bY/F97T/ins97aE/T98G/F99L/C122S/Q175L/Q192G (enzyme)
chain: VVGGTDADEGEWPWQVSLHALGQGHTCGASLISPNWLVSAAHCYIDYRGFRYSDPTQWTAFLGLHDQSQRSAPGVQERRLKRIISHPFFNDTEGLDYDIALLELEKPAEYSSMVRPISLPDASHVFPAGKAIWVTGWGHTQYGGTGALILQKGEIRVINQTTCENLLPQLITPRMMCVGFLSGGVDSCGGDSGGPLSSVEADGRIFQAGVVSWGDGCAQRNKPGVYTRLPLFRDWIKENTGV
B18: MTSP-1 D60bY/F97T/ins97aE/T98G/F99L/C122S/Q175L/Q192G (enzyme)
chain: VVGGTDADEGEWPWQVSLHALGQGHICGASLISPNWLVSAAHCYIDYRGFRYSDPTQWTAFLGLHDQSQRSAPGVQERRLKRIISHPFFNDTEGLDYDIALLELEKPAEYSSMVRPISLPDASHVFPAGKAIWVTGWGHTQYGGTGALILQKGEIRVINQTTCENLLPQLITPRMMCVGFLSGGVDSCGGDSGGPLSSVEADGRIFQAGVVSWGDGCAQRNKPGVYTRLPLFRDWIKENTGV
B19: MTSP-1 Q38H/I41S/D60bT/F60eS/Y60gW/ins97aV/F97D/T98P/F99L/C122S/G151H/Q175L/Q192D (enzyme)
chain: VVGGTDADEGEWPWQVSLHALGHGHSCGASLISPNWLVSAAHCYIDTRGSRWSDPTQWTAFLGLHDQSQRSAPGVQERRLKRIISHPFFNDDVPLDYDIALLELEKPAEYSSMVRPISLPDASHVFPAGKAIWVTGWGHTQYGGTHALILQKGEIRVINQTTCENLLPQLITPRMMCVGFLSGGVDSCDGDSGGPLSSVEADGRIFQAGVVSWGDGCAQRNKPGVYTRLPLFRDWIKENTGV
B20: MTSP-1 Q38H/I41A/D60bK/F60eK/Y60gW/F97T/ins97aE/T98G/F99L/C122S/Q175L/Q192D (enzyme)
chain: VVGGTDADEGEWPWQVSLHALGHGHACGASLISPNWLVSAAHCYIDKRGKRWSDPTQWTAFLGLHDQSQRSAPGVQERRLKRIISHPFFNDTEGLDYDIALLELEKPAEYSSMVRPISLPDASHVFPAGKAIWVTGWGHTQYGGTGALILQKGEIRVINQTTCENLLPQLITPRMMCVGFLSGGVDSCDGDSGGPLSSVEADGRIFQAGVVSWGDGCAQRNKPGVYTRLPLFRDWIKENTGV

Chain of plasma purified human complement protein C3 (human) (P01024 23-667, chain 1 of 2): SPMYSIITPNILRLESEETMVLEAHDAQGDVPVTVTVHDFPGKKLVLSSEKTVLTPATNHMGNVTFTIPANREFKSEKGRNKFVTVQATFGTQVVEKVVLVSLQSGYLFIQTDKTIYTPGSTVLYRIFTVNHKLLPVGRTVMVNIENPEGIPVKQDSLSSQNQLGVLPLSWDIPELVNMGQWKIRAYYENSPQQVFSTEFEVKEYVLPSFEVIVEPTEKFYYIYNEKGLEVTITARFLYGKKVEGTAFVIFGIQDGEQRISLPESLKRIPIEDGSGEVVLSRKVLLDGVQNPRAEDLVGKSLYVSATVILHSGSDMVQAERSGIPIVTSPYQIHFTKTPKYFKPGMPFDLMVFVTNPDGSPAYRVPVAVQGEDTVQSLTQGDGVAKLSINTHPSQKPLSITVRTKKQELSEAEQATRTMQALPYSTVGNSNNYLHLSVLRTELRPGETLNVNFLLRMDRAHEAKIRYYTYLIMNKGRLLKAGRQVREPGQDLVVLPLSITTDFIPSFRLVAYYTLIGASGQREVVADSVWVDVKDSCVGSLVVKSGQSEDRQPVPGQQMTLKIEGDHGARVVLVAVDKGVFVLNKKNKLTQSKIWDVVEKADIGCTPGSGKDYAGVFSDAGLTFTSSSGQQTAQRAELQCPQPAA
Chain of plasma purified human complement protein C3 (human) (P01024 672-1663, chain 2 of 2): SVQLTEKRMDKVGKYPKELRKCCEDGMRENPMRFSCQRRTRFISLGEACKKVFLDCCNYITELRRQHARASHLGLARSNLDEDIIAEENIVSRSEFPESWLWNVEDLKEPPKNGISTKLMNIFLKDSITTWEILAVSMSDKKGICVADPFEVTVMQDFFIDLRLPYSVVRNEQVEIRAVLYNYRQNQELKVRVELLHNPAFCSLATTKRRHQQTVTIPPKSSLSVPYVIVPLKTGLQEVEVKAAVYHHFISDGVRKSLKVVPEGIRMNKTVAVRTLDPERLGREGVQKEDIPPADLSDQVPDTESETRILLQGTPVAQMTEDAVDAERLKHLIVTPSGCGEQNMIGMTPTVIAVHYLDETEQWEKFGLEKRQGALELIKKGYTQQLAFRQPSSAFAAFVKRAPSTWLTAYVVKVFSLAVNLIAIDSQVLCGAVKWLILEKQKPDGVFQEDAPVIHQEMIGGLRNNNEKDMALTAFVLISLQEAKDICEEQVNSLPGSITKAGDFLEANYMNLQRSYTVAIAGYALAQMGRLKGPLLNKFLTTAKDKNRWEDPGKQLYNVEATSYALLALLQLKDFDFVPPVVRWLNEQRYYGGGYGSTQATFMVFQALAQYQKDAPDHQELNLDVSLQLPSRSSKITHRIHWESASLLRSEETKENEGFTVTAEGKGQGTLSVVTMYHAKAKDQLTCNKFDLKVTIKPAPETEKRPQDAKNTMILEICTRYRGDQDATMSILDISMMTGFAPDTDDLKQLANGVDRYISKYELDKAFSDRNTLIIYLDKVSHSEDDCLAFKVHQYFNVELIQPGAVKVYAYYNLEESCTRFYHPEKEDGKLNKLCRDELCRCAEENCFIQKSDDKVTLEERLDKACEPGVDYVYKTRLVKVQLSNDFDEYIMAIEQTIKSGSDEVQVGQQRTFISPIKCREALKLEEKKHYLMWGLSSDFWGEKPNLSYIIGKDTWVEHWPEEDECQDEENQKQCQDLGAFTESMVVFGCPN

This experiment addresses plasma purified human complement protein C3 (human) (UniProt P01024). Briefly: cell-based or functional assay.
As to B1, the EC50 of hC3 cleavage came out at 2.91 nM.

B2 came in with an EC50 of hC3 cleavage of 14.2 nM.

B3 displayed an EC50 of hC3 cleavage of 6.54 nM.

In the case of B4, the EC50 of hC3 cleavage came out at 18.3 nM.

B5: the EC50 of hC3 cleavage came to 5.04 nM.

B6 registered an EC50 of hC3 cleavage of 12.1 nM.

In turn, B7 registered an EC50 of hC3 cleavage of 43 nM.

Turning to B8, the EC50 of hC3 cleavage came to 32.7 nM.

B9 displayed an EC50 of hC3 cleavage of 6.06 nM.

B10: the EC50 of hC3 cleavage stood at 6.95 nM.

B11 gave an EC50 of hC3 cleavage of 22.6 nM.

Molecule B12 came in with an EC50 of hC3 cleavage of 1.25 nM.

With B13, the EC50 of hC3 cleavage amounted to 3.09 nM.

The molecule B14 displayed an EC50 of hC3 cleavage of 1.57 nM.

Take B15: the EC50 of hC3 cleavage came to 16.9 nM.

On to B16, for which the EC50 of hC3 cleavage came to 2.71 nM.

The molecule B17 had an EC50 of hC3 cleavage of 3.88 nM.

Turning to B18, the EC50 of hC3 cleavage turned out to be 4.1 nM.

Take B19: the EC50 of hC3 cleavage was 12.6 nM.

In turn, B20 registered an EC50 of hC3 cleavage of 22.3 nM.
